In the DeepSol protein solubility set:

test: soluble on expression in E. coli; label from the status in PepcDB or PDB records

Sequence	soluble on expression in E. coli
MSHLYDPTTQYYTGEYPKQKQPAPGVQAKMTPVPDCGEKSYVGSGRLKDRKALVTGGDSGIGRAAAIAYAREGADVAINYLPAEEEDAQQVKALIEECGRKAVLLPGDLSDESFARSLVHKAREALGGLDILALVAGKQTAIPEIKDLTSEQFQQTFAVNVFALFWITQEAIPLLPKGASIITTSSIQAYQPSPHLLDYAATKAAILNYSRGLAKQVAEKGIRVNIVAPGPIWTALQISGGQTQDKIPQFGQQTPMKRAGQPAELAPVYVYLASQESSYVTAEVHGVCGGEHLG	not soluble
MAEPKYAIIINDIKRLISDGTFKPGEKIYSEDELKKKYNVSNTTVVRALHELVRAGILARYQGKGTYVSKSIINEEVIFNEYTTVPNGKFNRKTKIANEHTKVVAINEIQDARIAKNLQIPPENMIVHFQRIRLIDDVPWTVQNNYMAKANLINVDLTNFERFNSLSEVIKELYGINILHEAMKERIQVEFPVKDKNNFKLLEIDSELPLYHIERITYVPEGQPYEYIESYLRHNFYSIEIEKKKQ	not soluble
MVGCLVVLLGAARKPARIFNLTPASASRYDSIHLCSLRTSLSCH	not soluble
MGSDKIHHHHHHLITVQDLELRAGARLLMDQVSFRIDKGDKIGLVGRNGAGKTTLTRVLAGEGLPAAGKVTRSGEIGYLPQDPRTPDMEQLARDRILSVRGLDIAVGKLRLAHEEMASEDAAVQRKAMNRYDRLESEFLAAGGYAAEAEAAAICSNLALPDRLLNQPLKTLSGGQRRRVELARILYSDAETMLLDEPTNHLDADSIAWLRDFLKNHQGGLIVISHDTELLEATVNKVFLLDANRAQIDFYNMDWKRYLQQRETDERARKRERANAEKKAQVLFDQANKMRAKATKAVAAQNMAKRAERLLSGLEAVRENDRVAALRFPDPSPCGKTPLTADGLSKSYGSLEIFTDVDLAIDRGSKVVILGLNGAGKTTLLRMLAGVDKPDTGEVIAGHGLKVGYYAQEHETLDVDRTVLQNMRSSAPDMNDSEVRGILGSFLFSGDDVDKPAGVLSGGEKTRLALATIVASSANVLLLDEPTNNLDPASRTEILGALRNYTGAVVLVSHDEGAVEALNPERVVLLPDGVEDHWNEDYLDLITLA	not soluble
MSLRIADKTVTRAILERHGFTFKKSFGQNFLTDTNILQKIVDTAEIDKGVNVIEIGPGIGALTEFLAENAAEVMAFEIDDRLIPILADTLARFDNVQVVNQDILKADLQTQIQAFKNPDLPIKVVANLPYYITTPILMHLIESKIPFAEFVVMIQKEVADRISAMPNTKAYGSLSIAVQYYMTAKVSFIVPRTVFVPAPNVDSAILKMVRRDQPVVSVQDEDFFFRVSKVAFVHRRKTLWNNLTSHFGKSEDTKAKLEKALEIAKIKPSIRGEALSIPDFASLADALKEVGIEGHHHHHH	soluble
MLLLQFSNMVEPTGPAIVEDERTKALNSYRRKLAECRDIEQKLKDLRKKESEMTKQFDKSENDIKSLQSVGQIVGEVLKQLSEEKFIVKATNGPRYVVGCRRSINKEELKQGTRVSLDMTTLTIMRQLPREVDPLVYKMSHEDPGNISYSDVGGLAEQIRELREVVELPLINPELFKRVGITPPKGCLLFGPPGTGKTLLARAVASQLDCNFLKVVSSAIVDKYIGESARMIREMFNYARDHQPCIVFMDEIDAIGGRRFSEGTSADREIQRTLMELLNQLDGFDSLGKVKVIMATNRPDTLDPALLRPGRLDRKIEIGLPNEQSRLEILKIHSNKITKHGEIDFEAVVKLSDGFSAADLRNVCTEAGMFAIRAEREFVIDEDFMKAVRKVGDAKRLETKLDYKPV	not soluble
MTHETDKIVEIERQKIEVENERFAIEDECCSIKKRIDVLDGVAAQISSGPASMGFSGQCSSSIPASGSQPHLTRRHTVTGQEPNPLAMSQNQMSTGFFFNHESLDNLAKFLGYYGE	not soluble
SRMRRYKSYFDWFDRQELHSMFQIAVPSVLQQSTVSIGMMIVQAVVNPFGTQALAGYAATMRVENVFSLIFVSIGNAVSPYVSQNLGANKPQRIKKGYRAA	not soluble
MAHHHHHHMGQISSKEDEIEKQNIYATYPGLEQQLDMVFACHDISKQGKLSYKTVEMILRHFLMQCGFMEYVCRFVDENGTLDLKHVSNYLSIKKLMYKLKCCGESMLTLDEMKELVIIFLKKISDTYTEDQTKWLEQMKSSQEQQDKALEEAMYKYEKNILFHHAVKEQQILQNDKKLNEWNENVENAYEAQQEILRQFESSRKKNIDISLEKNNELIIAKDYIDKIKEAATDNKYDNSKCFIYPASSAPCGACTSAGAIIHHRRYKEKRRKKEYSLCL	not soluble
MASDDEEDFTQLQINQNRKHKKAGGWQQIGLDHSVYKAIEKKGFNQPTPIQRKTIPCIMDGKDVVAMSRTGSGKTAAFVIPMLQKLKRRDTTGIRALMVSPTRELALQTFKVVKELGRFTGLRCACLVGGDQIEEQFSTIHENPDILLATPGRLLHVIVEMDLRLSYVQYVVFDEADRLFEMGFQDQLTETLKRIPESRQTLLFSATLPKMLVDFAKAGLTDPMLVRLDVDEKVSDKLSMVFCMCRPDEKLFALLHLCRNFCFKKLLETSLKKCKISKKKVPLLKKVRMDRENKQTVVFCATMKHVEYVVGILHRAGIDCSFVYSQLDATARKMNIQKFHEKQNNILVVTDVAARGVDIPLLDTVINLHFPPKAKLFVHRVGRVARAGRSGTAISLIANDELPYLTDLFMFLGKPINFASDKSEYKEDETLIGRVPDSIVSLETEFFHSIHDNNEDMQDLRQKATNAMMKYTRTRPPPSAESARRVKQDIRTDSVECAPHPFLKADGDKQSNDILNKISQYKSRNTIFEMNKSQKSQALAVMQAKRKAHEPRISTVTEEKRKQKEEKEQQQKSTDIAVEIAEKTVENAGEDELAEVFGTVIGSTKHTEKSEEKGGKKRKIGTGKRIDRAEQMKFEREKHYVPYMSSDHVAERHLALDTVDFARQAEGASVDIIMDDDRGMYQQKHGQRWDRRLKKYVGLSGGNEPANKKIRTEDGTWLPASYKTGKYEDWKQKQKIGFKKSDGGGDDGDNEGSGGMDRKRKWKMEKPKGGPKHSELKNKEQILKGRRKQEQLENYMEHRRQSNLKKKAEHLGRGGAGGARGGARGGARGGARGGSSRGARGGARGGGKFGNRR	not soluble
MGSDKIHHHHHHMEIFEDVVRCGGFRAAALGRGVSSSAISQSISVLEEALGIRLLNRTTRSVAPTEAGEQLLERLRPALYEIRTAVDDLNQLRERPSGTVRINAPGPAADHVLCPLTFEFMKIYPDVNVEIVSDAAIIDIVEQGFDAGVRFGNQLAQDMIAMPLGPALRYAIVASPDYLRKRGRPHSPRDLLQHDCIRRRFPGGTMVTWKFARDGDEVEITPKGRLTLSSAHQELQAALAGSGIAHLFEDYVRDDVEQGRLVELLCDWKQKLPSWYLYYPSRRHTSAAMRAFLEYIRNQRQHPDRR	not soluble
MSAEKSSADTAKKTLTIYSTMSTDSERDTFRKLAAAFEKEHSDIHVSLHFPGNDYENMMRVRMAANDLPDLFDTHGWGKIRYGEYTADLRDMKWTQDLDPNLNSILKNKSGKVYAYPINQAKDGLAYNRNILDRYGIAPPETMDDFIKALRTIKEKSKGSIVPFWFAGYDKSSFAQYYDQFATPLLITDPAHNEKKQLINGTFQWSKFTYLSEILKQMQKEKLINIDAVTAKKSQLIELMAQNKIAFTMQGGTLGQDVAQINPNVKVGIIPTPAIHPGDDPIWIGGERYTLAAWKDSPQLKEAKDFIAFMARPANAKQMAEATSLPSGLTNVKADIFYANDYEYYQDVKVEPYFDRLYLPNGMWDVLGTVGQELAADILAPQDISQKLGREYKRLREQSETQGAENNELEHHHHHH	soluble
MIGLMKGLAYTLKELTREKVTYDYPHEPLPLPDRFRGIQKFYPEKCIVCNQCVNICPTECIQLTGKKHPDPTKKGKVIETYNINFEICILCDLCTEVCPTEAIVMTNNFELAEYSRDALYKDLAWLDENDTNIRRENKP	not soluble
MDNEKGLLIVLSGPSGVGKGTVRKRIFEDPSTSYKYSISMTTRQMREGEVDGVDYFFKTRDAFEALIKDDQFIEYAEYVGNYYGTPVQYVKDTMDEGHDVFLEIEVEGAKQVRKKFPDALFIFLAPPSLEHLRERLVGRGTESDEKIQSRINEARKEVEMMNLYDYVVVNDEVELAKNRIQCIVEAEHLKRERVEAKYRKMILEAKK	soluble
MNVSVNIKNVTKEYRIYRTNKERMKDALIPKHKNKTFFALDDISLKAYEGDVIGLVGINGSGKSTLSNIIGGSLSPTVGKVDRNGEVSVIAISAGLSGQLTGIENIEFKMLCMGFKRKEIKAMTPKIIEFSELGEFIYQPVKKYSSGMRAKLGFSINITVNPDILVIDEALSVGDQTFAQKCLDKIYEFKEQNKTIFFVSHNLGQVRQFCTKIAWIEGGKLKDYGELDDVLPKYEAFLNDFKKKSKAEQKEFRNKLDESRFVIK	not soluble
RAKGRFFYDKTSSQQPAIIVLSGSDGRIEKAQNIAQLLASHGFTTLALAYFGLEGLASHLEKIPLEIIQEAIDYLKKSPYADSIRLGLYGRSKGAEFALLAASHYADFKCLVLNSPSYLCLEGLKQWRNSKTSSWTYQGQELPYHPFLWKDFFQRLILKKDLKNINHQAVIPVEKINGSLLLLVSKKDEVWDAYGSAITIVNRLQQKRFKYPYQVESYENCGHMMTVAYQPNHRYKKVALEKIMADTNDSWQKTL	not soluble
MSLKNEIQFEVFGDYALFTDPLTKIGGEKLSYSVPTYQALKGIVESIYWKPTIIFTIDKLRVMKPIQMESKGVRPIDYGGGNTLAHYTYLKDVHYQVKAHFDFNFNRPDLAFDRNEGKHYSILQRSLKAGGRRDIFLGTRECQGYVAPCEFGSGSGYYDGQGEYRLGTMVHGFNYPDETGQNQLDVRLWPAVMNDGYIKFPKPEDCTMIRPIKEMEPKEFKRDDIQSVEQLSYEVGGEEGHHHHHH	soluble
MKTSSIIEFKNPISKYQHDVDDGLHSDYKVINNEFIHKSIRILENYQFIQSLSHADKSTLIQHLKIRKYYHNQTVYNQNDPCTDINILLEGALKLGWSTSQGKYHTDIFVPSGTLINIVPIVTGQPLLHDHIAQGRTVIANLPGQLFVDVIRNNADALFMVLKLICVRTQLNREQNFIYSTETLQTRLAKKLVFLVDYHSYQDKDKILLNLKLSQENLAELLQTSRQSINKELAALSNQNIIEVKYNQIFILDFEKLSNIAQTHQFHSTTKFL	not soluble
MSLDVGGSERIPSEMRAWEVTSPAPIDSSPSPIHFVKHPVPVPKTSEVLVRVISCGICHTDLHVAEGDLPVHHPHVIPGHEIIGRVVANGPQAGRFNLGDRIGVPWLRWTCGVCTYCRSGKENLCPNSLYTGWDHDGGYAEYVTVPEGFAYRIPSAFNSVTAAPLLCAGIIGYHAFRRANVPAGGRLGLYGFGGSAHLAAQIAIAQGIEVHVFTRGKDAQRFALELGAASAQGVYDPSPVSLDSSILFAPVGDIVPKALENLAAGGTLALAGIHLTDVPSLNYQNHLFHEKVLTSVESNTRRDGEEFLTLADRLKIHPKTTEYPFEKADEALRHLSHGDMQGACVLRISEGHHHHHH	not soluble
MTFFFVFLALLSLLAFVIRKAHRNTYEAVLHKVQVGRSEDGDGAIRILQLSDLHLEKLSITPDDLYEKLKEEEIDLIALTGDFLDREESIAKLGPYLAALNALKPTYGMYAVFGNHDYVLQGEPFARLKATLEAHGCVVLQNETKTITVNGQTVNIIGIDDFYTGRSDIEKAYAGVKDGISLVLTHDPDIVPHMKDYHFDYLLSGHFHGGQIHWPKPYHLAKMSKTLTERNMIKGYHEWEGKPFYINEGLGQTGVNIRIGSKPEVTLHLLALPSRREAVKAV	not soluble
TGKIDGILSIGVDVTERVKWRKQIEASGARLKSMIDQTPAPTLVLMGDNLVIEQVNTSMLKLLGHEENIVGIPLLTLMPELKGQYIWEQVEKVYREGIPFDQSEVRVSHKRTGMMEDYYYNIAYRPLKED	not soluble
